We go through five molecules from article PMC12657763, “SH2-mediated steric occlusion of the C2 domain regulates autoinhibition of SHIP1 inositol 5-phosphatase” (The Journal of Biological Chemistry, 2025).

Sequences and labels used below:
B3: mNG-SHIP1(FL) (enzyme, human, UniProt Q92835-2 1-1188, looked up)
chain: MVPCWNHGNITRSKAEELLSRTGKDGSFLVRASESISRAYALCVLYRNCVYTYRILPNEDDKFTVQASEGVSMRFFTKLDQLIEFYKKENMGLVTHLQYPVPLEEEDTGDDPEEDTESVVSPPELPPRNIPLTASSCEAKEVPFSNENPRATETSRPSLSETLFQRLQSMDTSGLPEEHLKAIQDYLSTQLAQDSEFVKTGSSSLPHLKKLTTLLCKELYGEVIRTLPSLESLQRLFDQQLSPGLRPRPQVPGEANPINMVSKLSQLTSLLSSIEDKVKALLHEGPESPHRPSLIPPVTFEVKAESLGIPQKMQLKVDVESGKLIIKKSKDGSEDKFYSHKKILQLIKSQKFLNKLVILVETEKEKILRKEYVFADSKKREGFCQLLQQMKNKHSEQPEPDMITIFIGTWNMGNAPPPKKITSWFLSKGQGKTRDDSADYIPHDIYVIGTQEDPLSEKEWLEILKHSLQEITSVTFKTVAIHTLWNIRIVVLAKPEHENRISHICTDNVKTGIANTLGNKGAVGVSFMFNGTSLGFVNSHLTSGSEKKLRRNQNYMNILRFLALGDKKLSPFNITHRFTHLFWFGDLNYRVDLPTWEAETIIQKIKQQQYADLLSHDQLLTERREQKVFLHFEEEEITFAPTYRFERLTRDKYAYTKQKATGMKYNLPSWCDRVLWKSYPLVHVVCQSYGSTSDIMTSDHSPVFATFEAGVTSQFVSKNGPGTVDSQGQIEFLRCYATLKTKSQTKFYLEFHSSCLESFVKSQEGENEEGSEGELVVKFGETLPKLKPIISDPEYLLDQHILISIKSSDSDESYGEGCIALRLEATETQLPIYTPLTHHGELTGHFQGEIKLQTSQGKTREKLYDFVKTERDESSGPKTLKSLTSHDPMKQWEVTSRAPPCSGSSITEIINPNYMGVGPFGPPMPLHVKQTLSPDQQPTAWSYDQPPKDSPLGPCRGESPPTPPGQPPISPKKFLPSTANRGLPPRTQESRPSDLGKNAGDTLPQEDLPLTKPEMFENPLYGSLSSFPKPAPRKDQESPKMPRKEPPPCPEPGILSPSIVLTKAQEADRGEGPGKQVPAPRLRSFTCSSSAEGRAAGGDKSQGKPKTPVSSQAPVPAKRPIKPSRSEINQQTPPTPTPRPPLPVKSPAVLHLQHSKGRDYRDNTELPHHGKHRPEEGPPGPLGRTAMQ

Series [1] addresses pY-ITIM peptide …(pY)SLIK, conjugated to the supported membrane. Kind of series: single-molecule TIRF-M dwell time on supported lipid bilayers; pY-ITIM peptide conjugated to the membrane (2% PI(3,4,5)P3, 2% MCC-PE, 96% DOPC); 20–50 pM mNG-SHIP1 in solution; 23 °C; single or double exponential fit of dwell times.
Series [2] deals with mNG-SHIP1(ΔCTD) (human). Put plainly: single-molecule brightness distribution (TIRF-M); mNG-SHIP1 bound to pY peptides on supported lipid bilayers; 50 pM mNG-SHIP1(FL), 50 pM mNG-SHIP1(ΔCTD) or 20 pM mNG-mSHIP1(ΔCTD); particle brightness in the second frame of each trajectory.
In series [3] the target is mNG-SHIP1(ΔCTD) (human). Put plainly: single-molecule photobleaching (TIRF-M); mNG-tagged SHIP1 bound to supported lipid bilayers with conjugated pY peptides (2% PI(3,4,5)P3, 2% MCC-PE, 96% DOPC); steps of photobleaching counted.
Series [4] addresses B3. Put plainly: TIRF-M membrane recruitment (bulk mNG fluorescence on supported lipid bilayers); pY-ITIM peptide conjugated to the membrane (2% PI(3,4,5)P3, 2% MCC-PE, 96% DOPC); 100 pM mNG-SHIP1 in solution; membrane density normalized to mNG-SHIP1(FL). Particulars: both partners purified.
Series [5] concerns the molecule itself. Put plainly: SEC; purified mNG-SHIP1(RBD) on a size-exclusion chromatography column, multiple protein concentrations. On the technique in general: SEC sorts molecules by how far they enter the pores of the column.
Series [6] concerns the molecule itself. Kind of series: single-molecule photobleaching (TIRF-M); mNG-tagged SHIP1 bound to supported lipid bilayers with conjugated pY peptides (2% PI(3,4,5)P3, 2% MCC-PE, 96% DOPC); steps of photobleaching counted.

Where no end group is shown, it is not given here. [ ]: non-standard residue; d: D form. pY = N[C@@H](Cc1ccc(OP(=O)(O)O)cc1)C(=O)O

As for mNG-mSHIP1(ΔCTD) (domain or fragment), the membrane dwell time τ1 in series [1] stood at 0.409 s.
Take mNG-SHIP1(ΔCTD) (domain or fragment): in series [2], the estimated fraction existing as dimers (corrected for mNG maturation) is 26% and the fraction of legitimate dimers with two mNG visible is 13%. The same molecule displayed a stoichiometry N in series [3] of 2. In series [1], this molecule came in with a membrane dwell time τ1 of 0.359 s, a membrane dwell time τ1 (dimers only) of 1.79 s and a membrane dwell time τ2 of 1.83 s.

B1: pY-ITIM peptide CKTEAENTIT(pY)SLIK, conjugated to the supported membrane (peptide)
peptide: C(MCC‑PE lipid)KTEAENTIT[pY]SLIK
notes: cysteine added to the N terminus for coupling to the maleimide lipid; also called membrane-conjugated pY-ITIM peptides; pY-conjugated peptide; source: synthetic peptide (Elim Biopharmaceuticals), covalently coupled to MCC-PE lipids of the supported membrane
Turning to B1, the binding result in series [4] is “binds”.

B2: mNG-SHIP1(RBD) (domain or fragment, human, UniProt Q92835-2 151-290, looked up)
chain: ATETSRPSLSETLFQRLQSMDTSGLPEEHLKAIQDYLSTQLAQDSEFVKTGSSSLPHLKKLTTLLCKELYGEVIRTLPSLESLQRLFDQQLSPGLRPRPQVPGEANPINMVSKLSQLTSLLSSIEDKVKALLHEGPESPH
notes: the clone is UniProt Q92835 isoform 2, missing V117; A GGGGG linker stands between mNG and SHIP1; 42.7 kDa for the monomeric species; also called SHIP1(RBD) fused to an mNeonGreen (mNG); his10-mNG-GGGGG-SHIP1 (RBD, 151–290 amino acids); source: E. coli BL21 (DE3) Star, purified (HiTrap chelating column with CoCl2, TEV cleavage, Superdex 200); not shown: His10, N-terminal, cleaved; mNeonGreen, …
In the case of B2, the “stoichiometry N” value in series [5] is 2.
As for B3, the “stoichiometry N” value in series [6] was 2.

In general, stoichiometry N refers to a count of units in the complex or per binding partner.
